Series [1] concerns the molecule itself. Briefly: cross-linking; glutaraldehyde cross-linking and SDS-PAGE (Coomassie): 10 µM HSP90 with equimolar Sba1 or mScarlet-I, reaction buffer, 15 min 30 °C, 5 mM ATP or 2 mM AMP-PNP; cross-linking 2 min at room temperature.
The target of series [2] is T1, C. albicans HSP90E36A-mNeonGreen (C. albicans, UniProt P46598 1-707, E36A).
T1 construct: HSP90 of C. albicans, UniProtKB P46598, ATP-hydrolysis-defective mutant E36A; As m1 with E36A; GGGGS linker before mNeonGreen; also called His6-HSP90E36A-mNeonGreen; source: E. coli BL21(DE3), purified (Ni-NTA, gel filtration); not shown: mNeonGreen, C-terminal, kept
Kind of series: FRET or BRET; Kd determination, C. albicans: 200 nM HSP90E36A-mNeonGreen, Sba1-mScarlet-I 0-3000 nM (lowest non-zero 10 nM), reaction buffer with 5 mM ATP, 30 °C (text; the legend of Figure 2 says 37 °C), measured after 180 min; mNeonGreen control subtracted; nonlinear regression. The note with it: both partners purified. In general terms: In BRET a luciferase serves as donor, and the signal depends on an acceptor being close.

Series [3] addresses T2, C. albicans HSP90-mNeonGreen (C. albicans, UniProt P46598 1-707).
T2 construct: HSP90 of C. albicans, UniProtKB P46598; pET-11d: N-terminal His6, FXa site, XhoI site, protein, KpnI site; mNeonGreen joined to the C-terminus of HSP90 by a flexible linker GGGGS; No cleavage of the His6 tag is told; also called His6-HSP90-mNeonGreen; source: E. coli BL21(DE3), purified (Ni-NTA, gel filtration); not shown: mNeonGreen, C-terminal, kept
Briefly: FRET or BRET; competition, C. albicans: 1 µM HSP90-mNeonGreen and 1 µM Sba1-mScarlet-I with unlabeled Sba1 0-25,000 nM (lowest non-zero 12 nM), reaction buffer with 5 mM ATP; relative IC50 (four parameters), Ki by One Site - Fit Ki. The note with it: both partners purified.

Series [4] has as its target T3, human HSP90α-mNeonGreen (human, UniProt P07900 1-732).
T3 construct: human HSP90α, UniProt P07900; DNA from a plasmid of a previous work of the lab; Cloned by restriction-ligation on the basis of the C. albicans FRET plasmids (His6, FXa site, protein, mNeonGreen at the C-terminus); also called His6-HSP90α-mNeonGreen; source: E. coli Rosetta2(DE3) pLysS, purified (Ni-NTA, gel filtration); not shown: mNeonGreen, C-terminal, kept
Briefly: FRET or BRET; competition, human: 1 µM HSP90α-mNeonGreen and 1 µM p23-mScarlet-I with unlabeled p23 0-50,000 nM (lowest non-zero 23 nM), reaction buffer with 5 mM ATP; relative IC50 (four parameters), Ki by One Site - Fit Ki. The note with it: both partners purified.

The target of series [5] is T4, human HSP90αE47A-mNeonGreen (human, UniProt P07900 1-732, E47A).
T4 construct: human HSP90α, UniProt P07900, ATP-hydrolysis-defective mutant E47A; As m3 with E47A; also called His6-HSP90αE47A-mNeonGreen; source: E. coli Rosetta2(DE3) pLysS, purified (Ni-NTA, gel filtration); not shown: mNeonGreen, C-terminal, kept
Kind of series: FRET or BRET; Kd determination, human: 200 nM HSP90αE47A-mNeonGreen, p23-mScarlet-I 0-3000 nM (lowest non-zero 10 nM), reaction buffer with 5 mM ATP, 37 °C, measured after 180 min; mNeonGreen control subtracted; nonlinear regression. The note with it: both partners purified.

Where “and” joins values, the source holds several entries; their conditions need not be identical. Equal values may be shown once.

This note sets out measurements from publication PMC11053944, “FRET Assays for the Identification of C. albicans HSP90-Sba1 and Human HSP90α-p23 Binding Inhibitors” (Pharmaceuticals, 2024).

B1: C. albicans HSP90 (without fluorescent protein) (natural protein)
chain: not shown
notes: HSP90 of C. albicans, UniProtKB P46598; Printed mass of the monomer 82.5 kDa, dimer 165 kDa; N-terminal His6 followed by an FXa site; also called His6-HSP90; source: E. coli BL21(DE3), purified (Ni-NTA, gel filtration)
In general, stoichiometry N refers to a count of units in the complex or per binding partner. In the case of B1, the “stoichiometry N” value in series [1] is 2.

B2: C. albicans Sba1-mScarlet-I (natural protein, UniProt A0A1D8PQ94 1-221, looked up)
chain: MSSTTTQTPTVLWAQRSSEDDAAKNIIYLTIQISDPIDLKIDLKSDHLIIDSKSNDSVYSSIDYHLQIDFFKEIDPDQSKINTENGSHIFMILRKKDQQEEYWPRLTKEKLKYHYIKTDFDKWVDEDEQDEVKDDPNDFGGPGGPGGAMDFSQMLSGMGGLGGAGGSGGPGGVDLSALASQLGQAGGAGGAAGLDGEEGEEGEAEAKEAQEESNTTATEKE
notes: Sba1 of C. albicans, UniProtKB A0A1D8PQ94; mScarlet-I fused to the 3' end of Sba1, analogously to HSP90-mNeonGreen (there with a GGGGS linker); N-terminal His6 followed by an FXa site; also called His6-Sba1-mScarlet-I; source: E. coli BL21(DE3), purified (Ni-NTA, gel filtration); not shown: mScarlet-I, C-terminal, kept
Usually Kd stands for a measure of binding affinity in units of concentration. Read a high Kd as weaker binding. In the case of B2, binding in series [2] was put at a Kd of 100 nM.

B3: C. albicans Sba1 (unlabeled) (natural protein, UniProt A0A1D8PQ94 1-221, looked up)
chain: B2 chain
notes: Sba1 of C. albicans, UniProtKB A0A1D8PQ94; N-terminal His6 followed by an FXa site; also called His6-Sba1; unlabeled Sba1; source: E. coli BL21(DE3), purified (Ni-NTA, gel filtration)
The IC50 is the concentration at which inhibition is half-maximal. Read a high IC50 as weaker potency in that assay. The term Ki denotes the dissociation constant of the complex between target and ligand, obtained from inhibition or displacement. Read a low Ki as tighter binding. In series [3], B3 had an IC50 of 1950 nM and a Ki of 100 nM.

B4: human p23 (unlabeled) (natural protein, UniProt Q15185 1-160, looked up)
chain: MQPASAKWYDRRDYVFIEFCVEDSKDVNVNFEKSKLTFSCLGGSDNFKHLNEIDLFHCIDPNDSKHKRTDRSILCCLRKGESGQSWPRLTKERAKLNWLSVDFNNWKDWEDDSDEDMSNFDRFSEMMNNMGGDEDVDLPEVDGADDDSQDSDDEKMPDLE
notes: human p23, UniProt Q15185; N-terminal His6 followed by an FXa site; also called His6-p23; unlabeled p23; source: E. coli Rosetta2(DE3) pLysS, purified (Ni-NTA, gel filtration)
In series [4], B4 yielded an IC50 of 1420 nM and a Ki of 100 nM.

B5: human p23-mScarlet-I (natural protein, UniProt Q15185 1-160, looked up)
chain: B4 chain
notes: human p23, UniProt Q15185; Cloned by restriction-ligation on the basis of the C. albicans FRET plasmids (His6, FXa site, protein, mScarlet-I at the C-terminus); also called His6-p23-mScarlet-I; source: E. coli Rosetta2(DE3) pLysS, purified (Ni-NTA, gel filtration); not shown: mScarlet-I, C-terminal, kept
B5: in series [5], the Kd was 210 nM and 220 nM.
